In general, EC50 refers to the midpoint of the concentration-response curve. A lower EC50 goes with greater potency. For orientation: Kd means the free concentration of one partner at which half of the binding sites on the other are occupied at equilibrium, for simple one-to-one binding. In general, koff refers to the rate constant with which the complex falls apart. What is called kon is the rate constant with which the complex forms. A low value points to slow association.

The values that follow come from patent US20220298235A1 (AKESO BIOPHARMA, published 2022).

Assay [1] addresses T1, human IL-23 (IL-23-His-Biotin) (human, UniProt Q9NPF7 20-189; P29460 23-328, biotin label, site not stated).
T1 construct: Akesobio lot 20161209; His-tagged and biotinylated
T1 sequence (looked up) 1: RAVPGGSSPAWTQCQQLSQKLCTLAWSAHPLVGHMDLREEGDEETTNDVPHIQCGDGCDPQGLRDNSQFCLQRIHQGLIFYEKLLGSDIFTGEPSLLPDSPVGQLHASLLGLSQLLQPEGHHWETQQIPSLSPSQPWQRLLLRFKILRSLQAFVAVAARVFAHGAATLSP
T1 sequence (looked up) 2: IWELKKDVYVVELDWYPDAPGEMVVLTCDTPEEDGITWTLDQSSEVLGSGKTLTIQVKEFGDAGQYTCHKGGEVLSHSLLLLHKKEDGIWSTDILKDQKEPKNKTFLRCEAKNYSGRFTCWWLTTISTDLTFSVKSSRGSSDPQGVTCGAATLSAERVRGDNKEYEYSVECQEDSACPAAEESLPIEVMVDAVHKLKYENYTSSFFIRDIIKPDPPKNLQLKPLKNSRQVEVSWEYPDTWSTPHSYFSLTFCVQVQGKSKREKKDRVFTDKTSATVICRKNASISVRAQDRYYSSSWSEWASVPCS
Kind of assay: FACS competition, IL23-His-Biotin (4 µg/mL mixed 1:1) on 293T-IL-12Rβ1&IL-23R cells. The protocol:
200 μL of 1% PBSA was added into each sample, and the mixture was centrifuged at 1200 rpm for 5 min to discard the supernatant. According to experiment design, correspondingly diluted antibody (highest concentration of 60 μg/mL, 3-fold dilution, 8 concentrations in total) and human IL23-His-Biotin (Akeso Biopharma, Inc., Lot. No.: 20161209) (4 μg/mL) were mixed at a ratio of 1:1, and a blank control was set. The mixture of antibody and IL23-His-Biotin was incubated on ice for 30 min and then added to the cell precipitate at 100 μL/sample. The resulting mixture was well mixed and incubated on ice for 60 min. 200 μL of 1% PBSA was added, and the mixture was centrifuged at 1200 rpm for 5 min to discard the supernatant, and then washed twice. FITC Steptavidin (Biolegend, Cat. No.: 405202) was diluted at a ratio of 1:500 and added to each tube at 100 μL. The mixture was well mixed and incubated on ice for 40 min in the absence of light. 200 μL of 1% PBSA was added, and the mixture was centrifuged at 1200 rpm for 5 min to discard the supernatant, and then washed twice. 1% PBSA was added at 200 μL/tube, and the cells were resuspended and transferred to a flow cytometry tube for testing.

The target in assay [2] is T2, Human IL12 (His Tag) (human, UniProt P29459 23-219; P29460 23-328).
T2 construct: Bought His-tagged heterodimer
T2 sequence (looked up) 1: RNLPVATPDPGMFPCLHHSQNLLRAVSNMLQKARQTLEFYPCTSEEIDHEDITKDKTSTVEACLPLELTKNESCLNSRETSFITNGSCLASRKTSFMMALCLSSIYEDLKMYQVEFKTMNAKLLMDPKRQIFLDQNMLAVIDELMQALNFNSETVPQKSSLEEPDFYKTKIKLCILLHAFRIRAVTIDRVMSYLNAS
T2 sequence (looked up) 2: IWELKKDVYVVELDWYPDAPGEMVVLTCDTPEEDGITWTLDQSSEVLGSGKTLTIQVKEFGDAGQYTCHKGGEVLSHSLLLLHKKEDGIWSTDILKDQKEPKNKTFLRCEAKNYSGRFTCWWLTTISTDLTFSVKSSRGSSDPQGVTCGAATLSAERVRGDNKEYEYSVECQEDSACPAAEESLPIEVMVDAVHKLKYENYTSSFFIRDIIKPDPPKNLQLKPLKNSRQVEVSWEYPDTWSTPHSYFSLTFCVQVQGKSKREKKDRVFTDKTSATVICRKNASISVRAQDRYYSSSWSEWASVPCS
The assay can be described thus: FACS competition, IL12-His (40 nM mixed 1:1) on 293T-IL-12Rβ1&IL-23R cells. The protocol: 200 μL of 1% PBSA was added into each sample, and the mixture was centrifuged at 1200 rpm for 5 min to discard the supernatant. According to experiment design, correspondingly diluted antibody (highest final concentration of 60 μg/mL, 3-fold dilution, 8 concentrations in total) and IL12-His (Sino Biological, Cat. No.: CT-050-H08H-20) (40 nM) were mixed at a ratio of 1:1, and a blank control was set. The mixture of antibody and IL12 was incubated on ice for 30 min and then added to the cell precipitate at 100 μL/sample. The resulting mixture was well mixed and incubated on ice for 60 min 200 μL of 1% PBSA was added, and the mixture was centrifuged at 1200 rpm for 5 min to discard the supernatant, and then washed twice. THETM His tag antibody (FITC) (Genscript, Cat. No.: A01620) was diluted at a ratio of 1:500 and added to each tube at 100 μL. The mixture was well mixed and incubated on ice for 40 min in the absence of light. 200 μL of 1% PBSA was added, and the mixture was centrifuged at 1200 rpm for 5 min to discard the supernatant, and then washed twice. 1% PBSA was added at 200 μL/tube, and the cells were resuspended and transferred to a flow cytometry tube for testing.

The target of assay [3] is T3, human p40-His (human, UniProt P29460 23-328).
T3 construct: Made by Akeso Biopharma; construct limits and tag not described; also called human IL-12/IL-23 p40 protein domain; human IL-12/IL-23 p40; not shown: His tag
T3 sequence (looked up): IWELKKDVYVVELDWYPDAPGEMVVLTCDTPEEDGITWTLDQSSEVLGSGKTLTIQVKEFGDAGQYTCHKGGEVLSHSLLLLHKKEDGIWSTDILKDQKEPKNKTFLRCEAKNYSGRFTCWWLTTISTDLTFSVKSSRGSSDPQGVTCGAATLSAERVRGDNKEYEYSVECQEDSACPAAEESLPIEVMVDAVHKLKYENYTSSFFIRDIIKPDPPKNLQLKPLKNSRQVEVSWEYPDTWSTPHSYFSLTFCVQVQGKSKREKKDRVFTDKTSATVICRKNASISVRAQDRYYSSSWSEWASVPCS
Kind of assay: indirect ELISA, p40-His coat 0.25 µg/mL. Here is the method:
A microplate was coated with human p40-His (Akeso Biopharma, Inc.; gene of p40: GeneBank NM002187). After incubation at 4° C. for no less than 12 h, the plate was washed with PBST, patted dry and blocked with a solution of 1% BSA in PBS. After blocking was completed, the plate was washed with PBST and patted dry. The antibody diluted with PBST solution in gradient was added into the wells of the plate, and the antibody dilution gradient is detailed in Table 1. The plate containing the test antibody was incubated at 37° C. for 30 min and then washed with PBST and patted dry. […] TMB (Neogen, 308177) was added for color developing for 5 min in the absence of light, and then stop solution was added to terminate the chromogenic reaction. Then the plate was put into a plate reader immediately, and the OD value of each well in the plate was read at 450 nm. The data were analyzed by SoftMax Pro 6.2.1.
The binding EC₅₀ of antibody was calculated by curve fitting using antibody concentration as the abscissa and absorbance value as the ordinate, and the results are shown in Table 4 below.
(In an ELISA, binding on a coated surface is turned into a signal by an enzyme label.)

Assay [4] deals with T3, human p40-His. The assay can be described thus: BLI (Fortebio), p40-His on HIS1K sensor, antibody 5-0.31 nM, 37 °C, 1:1 fit. Here is the method: The sample dilution buffer for H5L9, H5L10, H5L11, H5L12, H5L14, H8L15, Ab123FR1 and ustekinumab was PBS (0.02% Tween-20, 0.1% BSA, pH 7.4). p40-His was immobilized on a HIS1K (manufacturer: Fortebio, Cat. No.: 18-5120) sensor at a concentration of 1 μg/mL for 40 s. The sensor was equilibrated in a buffer for 60 s, and the p40-His immobilized on the sensor bound to the antibody at a concentration of 5-0.31 nM (two-fold dilution) for 120 s, and then the protein dissociated in the buffer for 300 s. The sensor was refreshed with 10 mM glycine solution (pH=1.5). The detection temperature was 37° C., the detection frequency was 0.3 Hz, and the sample plate shaking rate was 500 rpm. The data were analyzed by 1:1 model fitting to obtain affinity constants.
(In BLI a coated tip is dipped into the sample, and binding shifts an interference pattern.)

B1: H8L15 (antibody, human IgG1, kappa, V domains shown)
VH: EVQLVQSGAEVKKPGESLKISCQSSGYTFTSYWIGWVRQMPGQGLEWIGIMSPVDSDIRYNPMFRGQVTMSVDKSSSTAYLQWSSLKASDTAMYYCARRRPGQGYFDFWGQGTMVTVSS
VL: EIVLTQSPATLSASPGERATISCRASQSVGTWVAWYQQKPGQAPRSLIYAASNLQSGIPARFSGSGSGTDFTLTISSLEPEDFAVYYCQQYNIYPYTFGQGTRLEIKR
notes: human IgG1 (P01857) / kappa (P01834) constant regions; also called anti-human IL-12/IL-23 p40 antibody H8L15; H8L15H1L1
B1: the EC50 in assay [1] came out at 0.894 mg/L. In assay [2], this molecule returned a 50% effective concentration (EC50) of 1.46 mg/L. In assay [3], this molecule registered a 50% effective concentration (EC50) of 0.059 nM. Also, in assay [4], binding was characterised by a dissociation constant (Kd) of 0.0609 nM, the “S E (kon)” value was found to be 213000 M⁻¹ s⁻¹, the “S E(kdis)” value was 0.000137 s⁻¹ and the koff worked out at 0.00018 s⁻¹. The molecule further had an on-rate constant (kon) in assay [4] of 2.95e+06 M⁻¹ s⁻¹.
